Source: US20190083615A1 (Merck Sharp & Dohme, published 2019)
Values belong to the binder of their own block, whether it stands above or below them.

What was measured:
[1] = molecular target: T1, human LAG3 (Lymphocyte Activation Gene-3) expressed on cells (human, UniProt P18627 23-525); experiment: flow cytometry, PHA-activated human CD4+ T cells (3 donors)
T1 construct: also called hLAG3; CD223
T1 sequence: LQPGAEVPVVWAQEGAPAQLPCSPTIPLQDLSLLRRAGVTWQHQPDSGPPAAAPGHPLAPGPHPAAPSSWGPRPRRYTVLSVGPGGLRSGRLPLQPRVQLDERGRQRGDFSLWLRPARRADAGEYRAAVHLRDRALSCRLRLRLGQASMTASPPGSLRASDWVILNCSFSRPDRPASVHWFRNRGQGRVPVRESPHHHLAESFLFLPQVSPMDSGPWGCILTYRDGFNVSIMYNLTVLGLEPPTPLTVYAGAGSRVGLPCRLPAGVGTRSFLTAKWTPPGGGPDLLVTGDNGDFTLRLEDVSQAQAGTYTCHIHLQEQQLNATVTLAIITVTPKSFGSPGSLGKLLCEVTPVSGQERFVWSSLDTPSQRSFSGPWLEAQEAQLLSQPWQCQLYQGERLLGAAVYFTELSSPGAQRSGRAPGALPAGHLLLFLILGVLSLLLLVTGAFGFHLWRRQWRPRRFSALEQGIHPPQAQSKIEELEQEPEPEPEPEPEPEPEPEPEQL
Procedure: (§1) Binding of LAG-3 mAb clones to primary T-cells was assessed using human and cynomolgous monkey (cyno) peripheral blood mononuclear cells (PBMC). Human blood was obtained from the local donors; cyno blood was obtained from Bioreclamation. PBMC were isolated from the whole blood using Ficoll-Paque Plus (GE Healthcare, Cat# 17-1440-03) density gradient centrifugation at 524×g for 40 minutes. PBMC were collected from the medium:plasma interface and washed 2 times with phosphate buffered saline (PBS). The residual red blood cells were lysed using ammonium-chloride-potassium red blood cell lysing solution (ACK, GIBCO, cat# A10492-010). Cynomolgus monkey or human PBMC (3×10⁶/ml) were stimulated with 4 μg/ml PHA (Sigma, L2769) for 48 h and 20 h, respectively. For flow cytometric analysis, 1×10⁶ PHA-activated PBMCs were used per staining in 50 μl FACS staining buffer (BD, cat# 554657). LAG-3 mAb clones or correspondent isotype controls were incubated with human or cyno PBMS followed by detection using goat anti-mouse IgG-PE (BD 550589). […] Sample acquisition was performed on an LSR II flow cytometer and the data were analyzed using FlowJo software version 10.0.6 (Tree Star, Inc.).
(§2) The data represent 3 human and 3 cynomolgus donors after stimulation with 4 ug/ml of PHA for 40 hours prior to staining.

[2] = molecular target: T2, human LAG3-huFc recombinant protein (human, UniProt P18627 23-450, limits assumed, biotinylated in the runs with humanized and chimeric antibodies (Example 11)); experiment: flow cytometry, blockade of biotinylated human LAG3-huFc binding to MHC class II on Daudi cells, streptavidin-PE
T2 construct: also called human LAG3-Fc; huLAG3-huFc; not shown: human Fc
T2 sequence: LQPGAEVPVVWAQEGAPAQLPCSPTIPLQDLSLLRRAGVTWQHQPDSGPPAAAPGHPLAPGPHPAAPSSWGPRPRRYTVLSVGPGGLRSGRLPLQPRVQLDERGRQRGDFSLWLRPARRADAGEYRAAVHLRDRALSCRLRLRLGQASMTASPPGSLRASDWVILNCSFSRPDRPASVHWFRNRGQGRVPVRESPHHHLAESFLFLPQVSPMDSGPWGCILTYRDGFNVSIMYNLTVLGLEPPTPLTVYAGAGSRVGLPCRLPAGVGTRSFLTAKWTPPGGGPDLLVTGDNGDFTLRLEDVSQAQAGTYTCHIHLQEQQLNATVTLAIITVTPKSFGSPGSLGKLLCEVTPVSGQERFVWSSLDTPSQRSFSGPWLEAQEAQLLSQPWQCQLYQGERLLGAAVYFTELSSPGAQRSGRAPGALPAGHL
Procedure: Mouse anti-human LAG3 and humanized anti-LAG3 clones were tested for their ability to block hLAG3 interaction with human MHC Class II. Daudi cells (ATCC #CCL-213) were used as a cell line positive for human MHC class II expression. Daudi cells were blocked with 10 ug/ml of goat IgG in HBSS and 2% BCS on ice for 30 minutes and 0.5×10⁶ cells/sample were aliquoted into a 96-well V-bottom plate and blocking buffer removed. […] Cells were pelleted by centrifugation at 1200 rpm and washed twice with HBSS/2% BCS. […] Cells were washed twice as described above, resuspended in HBSS/2% BCS and read on the FACSCalibur.

[3] = molecular target: T1, human LAG3 (Lymphocyte Activation …); experiment: flow cytometry, PHA-activated human CD8+ T cells (3 donors)
Procedure: as §1, §2

[4] = molecular target: T3, human CD4 (human, UniProt P01730 26-458); experiment: BiaCore (SPR)
T3 construct: whole, on cells; Tested on transfected L-cells by FACS and also by BiaCore

[5] = molecular target: T1, human LAG3 (Lymphocyte Activation …); experiment: cell based KinExA, BaF/3 cells transfected with human LAG3 (n=3)
Procedure: The affinities of the LAG3 antibodies for LAG3 were determined using a cell based Kinetic Exclusion Assay (KinExA). Cell based KinExA can be used to measure the affinity of a molecule for a binding partner on a cell surface (Rathanaswami et al. Analylitical Biochemistry 373(1): 52-60 (2008); Xie et al. J. Immunol. Methods 304 (1-2): 1-14 (2005)). In this case, BaF/3 cells were stably transfected with human and cynomolgus monkey LAG3 proteins. Transfected cells or the parental BaF/3 control cell line were grown to a density of 1.7×10⁶ to 3.2×10⁶ cells per ml at 37° C., 120 RPM, 5% CO₂, in 1X RPMI 1640 media with 10% FBS, 10 ng/ml IL-3, 5 μg/ml puromycin. Cells were concentrated, mixed with 15 pM or 150 pM antibody in cell culture media and incubated 24 to 48 hours at room temperature while rotating at 20 to 30 RPM. Cells were present at a top concentration of 2×10⁷ cells per ml (parental BaF/3 or cynomolgus LAG3 transfectants) or 1×10⁷ cells per ml (human LAG3 transfectants) and diluted in a 2-fold, 18 member series. The cells were pelleted and free antibody in the supernatant was measured using a KinExA 3200 instrument (Sapidyne, Id., USA). […] Antibody on the beads was labeled with 1.5 μg/ml Alexa Fluor® 647 conjugated goat anti-human (Fab′)₂ (Jackson ImmunoResearch Laboratories), washed and the fluorescent signal was read all using the KinExA™ 3200. […]

[6] = molecular target: T1, human LAG3 (Lymphocyte Activation …); experiment: cell based KinExA, BaF/3 cells transfected with human LAG3 (n=2)
Procedure: The affinities of the LAG3 antibodies for LAG3 were determined using a cell based Kinetic Exclusion Assay (KinExA). Cell based KinExA can be used to measure the affinity of a molecule for a binding partner on a cell surface (Rathanaswami et al. Analylitical Biochemistry 373(1): 52-60 (2008); Xie et al. J. Immunol. Methods 304 (1-2): 1-14 (2005)). In this case, BaF/3 cells were stably transfected with human and cynomolgus monkey LAG3 proteins. Transfected cells or the parental BaF/3 control cell line were grown to a density of 1.7×10⁶ to 3.2×10⁶ cells per ml at 37° C., 120 RPM, 5% CO₂, in 1X RPMI 1640 media with 10% FBS, 10 ng/ml IL-3, 5 μg/ml puromycin. Cells were concentrated, mixed with 15 pM or 150 pM antibody in cell culture media and incubated 24 to 48 hours at room temperature while rotating at 20 to 30 RPM. Cells were present at a top concentration of 2×10⁷ cells per ml (parental BaF/3 or cynomolgus LAG3 transfectants) or 1×10⁷ cells per ml (human LAG3 transfectants) and diluted in a 2-fold, 18 member series. The cells were pelleted and free antibody in the supernatant was measured using a KinExA 3200 instrument (Sapidyne, Id., USA). […] Antibody on the beads was labeled with 1.5 μg/ml Alexa Fluor® 647 conjugated goat anti-human (Fab′)₂ (Jackson ImmunoResearch Laboratories), washed and the fluorescent signal was read all using the KinExA™ 3200. The data from the 15 pM and 150 pM concentrations of each antibody were fit simultaneously using KinExA™ Pro n-Curve Analysis software version 4.0.11 (Sapidyne).

B1: Ab6: humanized light chain 45AGX Humanized x[LAG3_H] mAb (LB145.22D2.E1.D1 (VL3)) Kappa (PX) and humanized heavy chain 73AHD Humanized x[LAG3_H] mAb … (antibody)
heavy: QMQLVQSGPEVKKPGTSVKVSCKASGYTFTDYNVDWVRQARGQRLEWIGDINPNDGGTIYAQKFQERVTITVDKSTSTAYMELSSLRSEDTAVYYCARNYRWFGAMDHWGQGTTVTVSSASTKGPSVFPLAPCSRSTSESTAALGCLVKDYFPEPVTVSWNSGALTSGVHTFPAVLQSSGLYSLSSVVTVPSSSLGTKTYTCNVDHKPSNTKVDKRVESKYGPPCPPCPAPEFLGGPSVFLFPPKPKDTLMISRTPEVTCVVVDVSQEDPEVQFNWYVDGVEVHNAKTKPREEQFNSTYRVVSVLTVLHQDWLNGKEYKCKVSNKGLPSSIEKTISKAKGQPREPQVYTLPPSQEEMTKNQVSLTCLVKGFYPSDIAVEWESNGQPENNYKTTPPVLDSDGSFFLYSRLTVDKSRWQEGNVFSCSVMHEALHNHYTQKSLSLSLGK
light: DIVMTQTPLSLSVTPGQPASISCKASQSLDYEGDSDMNWYLQKPGQPPQLLIYGASNLESGVPDRFSGSGSGTDFTLKISRVEAEDVGVYYCQQSTEDPRTFGGGTKVEIKRTVAAPSVFIFPPSDEQLKSGTASVVCLLNNFYPREAKVQWKVDNALQSGNSQESVTEQDSKDSTYSLSSTLTLSKADYEKHKVYACEVTHQGLSSPVTKSFNRGEC
notes: Humanized 22D2 N55D, IgG4 S228P/kappa; also called Hu22D2 VH6/VL3 N55D (Ab 6); hu22D2 VH6/VL3 N55D
EC50 [1]: 0.039 nM
IC50 [2]: 2.4 nM
EC50 [3]: 0.033 nM
binding result [4]: no binding
Kd [5]: 0.002 nM

EC50 [1]: 0.041 nM
IC50 [2]: 2.5 nM
Kd [6]: 0.011 nM
EC50 [3]: 0.035 nM
B2: Ab8: humanized light chain 45AGX Humanized x[LAG3_H] mAb (LB145.22D2.E1.D1 (VL3)) Kappa (PX) and humanized heavy chain 80AHG Humanized x[LAG3_H] mAb … (antibody)
heavy: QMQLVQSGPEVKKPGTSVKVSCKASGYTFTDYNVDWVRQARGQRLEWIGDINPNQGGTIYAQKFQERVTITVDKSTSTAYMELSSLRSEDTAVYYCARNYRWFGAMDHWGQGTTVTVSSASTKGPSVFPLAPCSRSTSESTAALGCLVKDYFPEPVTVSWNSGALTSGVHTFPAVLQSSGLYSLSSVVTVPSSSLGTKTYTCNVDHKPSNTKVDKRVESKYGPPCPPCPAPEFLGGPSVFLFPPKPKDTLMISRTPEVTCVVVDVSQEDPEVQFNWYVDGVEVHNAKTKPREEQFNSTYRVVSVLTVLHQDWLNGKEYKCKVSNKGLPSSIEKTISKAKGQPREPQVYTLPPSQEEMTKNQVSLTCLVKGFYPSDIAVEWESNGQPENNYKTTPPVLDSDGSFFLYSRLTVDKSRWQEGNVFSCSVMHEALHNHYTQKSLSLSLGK
light: B1 light
notes: Humanized 22D2 N55Q, IgG4 S228P/kappa; also called Hu22D2 VH6/VL3 N55Q (Ab 8); hu22D2 VH6/VL3 N55Q
